According to patent US20180049457A1, “ENZYMATIC SYNTHESIS OF SOLUBLE GLUCAN FIBER” (E I DU PONT DE NEMOURS AND COMPANY, priority 2014, published 2018):

Experiment: GTF activity of strains (PAHBAH assay)
Assay type: biochemical
Conditions: enzyme expressed in B. subtilis host
Description: GTF activity of the strains was analyzed by PAHBAH assay in three separate experiments. Due to minor variations between the expeirments, Table 2 lists the activity of the truncated enzymes in the B. subtilis host along with the experiment in which the activity was measured. Most of the T1, T2, and T6 truncations decreased the activity of the enzymes, whereas the T4 and T5 C-terminal truncations retained similar activity relative to the respective N terminal-only truncations (NT). […] To identify specific amino acid residues within the catalytic domain that may be involved in producing the soluble α-glucan fiber, we analyzed the crystal structures (PDB Identifiers: 3AIB, 3AIC, and 3HZ3) of the catalytic domains of three glucosyltransferases to identify residues within 8 Angstroms of the bound ligand. 57 residues met that criterion. A motif was generated based on the corresponding 57 amino acids in GTF0459 and each of the identified homologs. The motif was then used to generate a consensus sequence to capture the variability in the catalytic domains of GTF0459 and the identified homologs. The consensus sequence is provided as SEQ ID NO: 153.

B1: GTF4336NT: N terminal-only truncated GTF4336 from Streptococcus salivarius SK126, SEQ ID NO: 104, strain SG1291 (protein)
chain: INGKQYYVNSDGSVRKNFVFEQDGKSYYFDAETGALATKSQDEFSTEPIKATVDFSSGNQLYKNDDKSLDQLDTFITADAWYRPKSILKDGKTWTASTEADKRPLLMVWWPDKSTQVNYLNYMQNQGLGAGSFSTNSSQESLDQAAKAVQTKIEERIAREGNTNWLRTSIDQFIKTQPGWNSSTENSSYDHLQGGQLLFNNSKGDTGNRTSHANSDYRLLNRTPTNQTGTRKYFKDNSIGGLEFLLANDIDNSNPAVQAEQLNWLHFMMNIGSIMANDPTANFDGLRVDALDNVDADLLQIASDYFKAAYGVDKSEANAIKHLSYLEAWSANDPYYNKDTKGAQLPIDNALRNALTNLLMRDKNTRMQLGDMTAFINSSLNPRGANDKNGERMANYIFTRAHDTEAQTIIQRIIRDRINPNLFGYNFTRDEIKKAFEIYNEDIDKAHKTYASYNLPSVYALMLTNKDSVTRVYYGDLYREDGHYMAKKTPYFDAIDTLLRARIKYVAGGQDMEVKKVGNDGLLTSVRYGKGANNRTDLGTSETRTQGMGVIMTNNYDFRLGSNETVTMNMGRAHRNQLYRPLLLTTKDGIATYFNDSDVPKNLLKRTDWNGNLTFNANDVFGVENVQVSGYLGVWVPVGAKANQDARTQPSNRANSDGQVYKSSAALDSQVMYEAFSNFQAFADDQPELYMNRVLAKNTDLLKAWGVTSVGLPPQYVSSKDGTFLDSTIDNGYAFDDRYDMALSQNNKYGSLEDLLNVLRALHKDGIQAIADWVPDQIYNLPGKEVVNATRVNGYGYHQQGYQIVDQAYVANTRTDGTDYQGKYGGAFLDELKAKYPSIFNRVQISNGKQLPTNEKITKWSAKYFNGTNILGRGINYVLRDDKTNQYFNTSANSQLLPTPLRDTGAITSTQVFQRRGQDVYFLRDNQAVKNEFVQDGNGNWYYFGADGKMTKGAQTINKKDYYFFDNGIQLRNALRRANNGYTYYYGLDGAMVKNAFVDFDDKRKQVRAFTTQGTMVVGNLHWSGHHFYFDRETGIQAKDRIVRTDDGKLHYYVAGTGDMGRNVFATDSSTGKRYYFDADGNTVTGSRVIDGKTYYFNQDGSVGTAYSNRADSIIFENGKARYITPAGEIGRSIFVYNPATKAWNYFDKEGNRVTGRQYIDGHLYYFKEDGSQAKGEIIEENGIKYYYEPESGILASGRYLQVGDDQWMYFKQDGSLAIGQVRADHGYLKYFDKNGIQVKGKTIVEDGKTYYYDAHSGALVTSSFAEIAPNQWSYFNTDGQALKGKWTINGKEYYFDQNGIQYKGKAVKVGSRYKYYDENDGQPVTNRFAQIEPNVWAYFGADGYAVTGEQVINGQHLYFDQSGRQVKGAYVTVNGQRRYYDANTGEYVPGR
modifications: Streptococcus salivarius SK126
With B1 the “GTF activity of strains: Acitivity” value (Experiment Number 1) was 34.5 U/mL and the “GTF activity of strains: Acitivity” value (Experiment Number 2) was 48.6 U/mL.
